We go through 2 molecules from paper PMC9089897 (2022).

Experiment [1] concerns the target T1, biotinylated avi-tagged SARS-CoV-2 (Wuhan) receptor binding domain (RBD) (SARS-CoV-2 (Wuhan strain), UniProt P0DTC2 319-541). Briefly: BLI. (In general: BLI is a label-free optical method that tracks binding on a fibre tip over time.)
Experiment [2] concerns the target T1, biotinylated avi-tagged SARS-CoV-2 …. Briefly: BLI. This is another data set of the same source.

B1: THSC20.HVTR04 (IgG) (antibody, V domains shown)
VH: QVQLVESGGGVVQPGRSLRLSCAASGFTFSNYAIHWVRQAPGKGLEWVAVVSYDGSNKYYAESVKGRFTISRDNSKNTLSLQMISLRPEDTAVYYCASVADTAMVPEWYFDLWGQGTMVTVSS
VL: QSVLTQPRSVSGSPGQSVTISCTGTSSDVGAYNYVSWYQQHPGKAPKLMIYDVSARPSGVPDRFSGSKSGNTASLTISGLQAEDEADYYCCSYAGSWVFGGGTKLTVL
As to B1, the koff in experiment [1] amounted to 9.15e-05 s⁻¹.

B2: THSC20.HVTR26 (IgG) (antibody, V domains shown)
VH: EVQLVESGGGLVQPGGSLRLSCAASGFTVSSNYMSWVRQAPGKGLEWVSAIYSGDSTYYADSVKGRFTISRHNPKNTLYLQMNSLRAEDTAVYYCARLVGALTNIVVSGDGGAFDIWGQGTMVTVSS
VL: SYELTQPASVSGSPGQSITISCTGTSSDVGSYNLVSWYQQHPGKAPKLMIYEVSKRPSGVSNRFSGSKSGNTASLTISGLQAEDEVDYYCCSYAGSSTWVFGGGTKLTVL
In turn, B2 gave a dissociation rate constant (koff) in experiment [1] of 0.000131 s⁻¹. The same molecule yielded a dissociation constant Kd in experiment [2] of 255 pM.

One may read the koff as the rate constant with which the complex falls apart. Usually Kd stands for a measure of binding affinity in units of concentration. Lower therefore signals tighter binding.
